Two molecules from patent US20050079574A1 can be followed below.

In the assay the target is IGF1 (Insulin-like Growth Factor 1) (UniProt P05019). Kind of assay: IC50 (uM) column of the drawn table; phage clone of the F(ab')2 L3/H3 library on the 4D5 template, IC50 analysed as in Sidhu et al. (P-0517); source oligo (DVK)7.

As a reminder, the IC50 is the concentration needed to halve the response being measured. A high value points to weaker potency in that assay.

Positions count from the first letter of the chain named.

B1: SEQ ID NO 69 (antibody, part only; not given: template light chain, V domains shown, part only)
VH: EVQLVESGGGLVQPGGSLRLSCAASGFNIKDTYIHWVRQAPGKGLEWVARIYPTNGYTRYADSVKGRFTISADTSKNTAYLQMNSLRAEDTAVYYCSRSRGWWTAAMDVWGQGTLVTVSS
Consider B1, for which the IC50 was found to be 0.3 µM.

B2: SEQ ID NO 70 (antibody, part only; not given: template light chain, V domains shown, part only)
VH: B1 VH with S99A, R100S, G101R, W102D, T104Y, A105G
Molecule B2 had an IC50 of 15 µM.
